Numbering of substitutions follows the chain as printed.

We go through two proteins from US20260028608.

Series [1] concerns the target IgG in human serum pool from 100 individuals.
The target of series [2] is anti-drug antibodies (ADA) in human serum.

B1: pCART239, a variant IdeZ polypeptide of the invention (protein)
chain: MDDYQRNATEAYAKEVPHQITSVWTKGVTPPEQFTQGEDVIHAPYLAHQGWYDITKAFNGKDDLLCGAATAGNMLHWWFDQNKTEIEAYLSKHPEKQKIIFRNQELFDLKAAIDTKDSQTNSQLFNYFRDKAFPNLSARQLGVMPDLVLDMFINGYYLNVFKTQSTDVNRPYQDKDKRGGIFDAVFTRGNQTTLLTARHDLKNKGLNDISTIIKQELTEGRALALSHTYANVSISHVINLWGADFNAEGNLEAIYVTDSDANASIGMKKYFVGINAHGHVAISAKKIEGENIGAQVLGLFTLSSGKDIWQKLSGGGHHHHHH
For B1, in series [1], the “enzyme concentration at which intact IgG started to be digested, serum pool with 0.1 mg/ml pCART243 (SDS-PAGE)” value is on record as “Intact IgG started to be digested already at 0.03 µg/ml”; the “enzyme concentration at which scIgG are further digested into F(ab')2 and Fc fragments in serum pool (SDS-PAGE)” value was “approximately 1.9 µg/ml of enzyme”; the “enzyme concentration for cleavage from IgG to scIgG in serum pool (SDS-PAGE)” value is on record as “approximately 0.9 µg/ml of enzyme”.

B2: pCART243, an inactive variant IdeZ polypeptide (protein)
chain: B1 chain with C66G
Regarding B2, the “restoration of pCART239 IgG cleavage activity in serum by 0.1 mg/ml inactive decoy (SDS-PAGE)” value in series [2] is listed as “should bind the inactivating ADA to the extent that the activity of pCART239 in serum is restored. This was shown to be the case”.
